Test results published in paper PMC11508087 (2024).

B1: pOA-2 (antibody, V domains shown)
VH: EEKVVESGGGLVQPGGSLRLSCVGSGFNFKNYEINWVRQAPGKALEWLAYITQTSDFIYYADSVKGRFTISRDNSRNTAYLQMNNLRTEDTARYFCTRAGLTGCKSRHCMYVWGPGAEVVVSS
VL: QTVIQEPAMSVSLGGTVTLTCGFISGSVTGTNYPSWFQQTPGQPPRLLIYYANSRPTEVPSRFSGAISGNKAALTITGAQAEDEADYFCCLYKTNNNILFGGGTHLTVL
B2: pOA-1 (antibody, V domains shown)
VH: EENVVESGGGLVRPGGSLRLSCIFSGFTFSTYSVRWVRQAPGKGLEFLTYIFKNVGDIDTADSVKGRFTISRDNSQNTAYLQMNSLRPEDTARYFCLVANKYWGPGVEVLVSS
VL: AIVLTQSPLSLSVSPGDSASISCRSSQSLVEDDGSSVLNWYLQRPGQSPQRLIYSAVGRDAGVPDRFSGSGSGTDFTLTISGVEAEDLGVYYCQQSKVSTTFGAGSKLDLK
B3: pOA-13 (antibody, V domains shown)
VH: EGQLVQSGGGRVQPGGSLRLVCVGSGDDGLGHYAVTWVRQAPGRGLEWLASDASRVTTTYYADSVKGRFTSTLDIPHNTAYLQMNSLKTEDTARYFCARNVWTLDIWGPGVEVVVS
VL: QTVIQEPAMSVSLGGTVTLTCAFRGGSVDGDNYPGWLRQQTPGQPPRLLISSTNNRPTGVPSRFSGTISGNKATLTITGAQTEDEADYFCALWNDNNNRLIFGGGTRLTVL

Legend:
Assay in all cases: BLI
FMDV A/AF72 146S antigen [1] = target: T1, FMDV A/AF72 146S antigen (foot-and-mouth disease virus serotype …)
[2] = target: T2, FMDV O/Tibet/99 146S antigen (foot-and-mouth disease virus serotype …)
FMDV A/AF72 146S antigen [3] = target: T1, FMDV A/AF72 146S antigen; remark: listed apart in the source
[4] = target: T2, FMDV O/Tibet/99 146S antigen; remark: listed apart in the source

| Binder | Kd (FMDV A/AF72 146S antigen [1]) | Kd [2] | koff (FMDV A/AF72 146S antigen [3]) | koff [4] |
| --- | --- | --- | --- | --- |
| B1 | 4.44 nM | 4.85 nM | 0.00249 s⁻¹ | 0.00242 s⁻¹ |
| B2 | 2.48 nM | – | 0.00467 s⁻¹ | 2.88e-05 s⁻¹ |
| B3 | 5.11 nM | 1.8 nM | 0.00634 s⁻¹ | 0.00143 s⁻¹ |
